According to US20230100941A1, “MOLECULES TARGETING MUTANT RAS PROTEIN” (AELIN THERAPEUTICS, priority 2020, published 2023):
Ends that are not written are not given here.

Experiments:
G12C mutant KRAS = biological target: T1, G12C mutant KRAS (Homo sapiens, UniProt P01116, G12C); assay: In vitro translation assay with streptavidin pull-down of biotinylated pept-ins, Western blot for KRAS; type: binding; details: 10 μM biotinylated pept-in
T1 construct: made in house; host or cells: cell-free: PURExpress In Vitro Protein Synthesis Kit (New England Biolabs), linear T7 PCR template
Description: (§1) In vitro translation assays were performed using the PURExpress® In Vitro Protein Synthesis Kit (New England Biolabs) according to the manufacturer's instructions. Briefly, linear DNA fragments containing T7 promotor and terminator sequences flanking the KRAS coding sequence were generated using PCR and purified using the MinElute PCR Purification Kit (Qiagen). 250 ng of linear DNA was subsequently used for the in vitro translation reaction, which was performed for 2 hours at 37° C. with shaking (1000 rpm). Indicated biotinylated pept-ins were mixed in the translation reactions from a 5 mM stock solution in 6M Urea to a final concentration of 10 μM. Upon completion of the translation reaction, biotinylated pept-ins were captured from the reaction mix using Streptavidin coated beads (Pierce) during 90 min at room temperature. Beads were next washed with TBS containing 0.1% Tween 20 and bound proteins were finally boiled off in 1×SDS loading dye (Bio-Rad) in TBS buffer. Proteins were resolved using Any kD 15-well Mini-PROTEAN gels (Bio-Rad) during SDS-PAGE and probed for KRAS after Western blotting using a mouse monoclonal KRAS-specific antibody (SC-30, Santa Cruz Biotechnology), which was detected with an HRP-coupled anti-mouse secondary antibody using chemiluminescence on a Bio-Rad Chemidoc MP imaging instrument.
(§2) To mimic this in vitro, we devised an in vitro translation setup producing either wild-type or mutant (G12V, G12C, G12D or G13D) KRAS in the presence of biotinylated RAS-targeting pept-ins. This allowed us to perform a streptavidin pull-down to capture the biotinylated pept-ins from the translation reaction and perform SDS-PAGE and Western blotting to probe the pulled-down fraction for the presence of KRAS. The biotinylated version of pept-in 04-004-N001, i.e. 04-004-N011, which harbours an APR window sequence derived from a wild-type APR, is predicted to target all RAS proteins independently from their mutation status.

G12V mutant KRAS = biological target: T2, G12V mutant KRAS (Homo sapiens, UniProt P01116, G12V); assay: as above; type: binding; details: 10 μM biotinylated pept-in
T2 construct: made in house; host or cells: cell-free: PURExpress In Vitro Protein Synthesis Kit (New England Biolabs), linear T7 PCR template
Description: as §1, §2

G12D mutant KRAS = biological target: T3, G12D mutant KRAS (Homo sapiens, UniProt P01116, G12D); assay: as above; type: binding; details: 10 μM biotinylated pept-in
T3 construct: made in house; host or cells: cell-free: PURExpress In Vitro Protein Synthesis Kit (New England Biolabs), linear T7 PCR template
Description: as §1, §2

G13D mutant KRAS = biological target: T4, G13D mutant KRAS (Homo sapiens, UniProt P01116, G13D); assay: as above; type: binding; details: 10 μM biotinylated pept-in
T4 construct: made in house; host or cells: cell-free: PURExpress In Vitro Protein Synthesis Kit (New England Biolabs), linear T7 PCR template
Description: as §1, §2

KRAS wild-type = biological target: T5, KRAS wild-type (Homo sapiens, UniProt P01116); assay: as above; type: binding; details: 10 μM biotinylated pept-in
T5 construct: made in house; host or cells: cell-free: PURExpress In Vitro Protein Synthesis Kit (New England Biolabs), linear T7 PCR template
Description: as §1, §2

[1] = biological target: T6, mutant G12V KRAS in RASless MEFs (Homo sapiens, UniProt P01116, G12V); assay: Cellular co-immunoprecipitation assay in RASless MEFs; type: cell-based, mouse; details: 25 μM biotinylated pept-in, 16 hours
T6 construct: host or cells: RASless mouse embryonic fibroblasts (HRAS/NRAS-null, endogenous KRAS removed)
Description: (§3) Cellular co-immunoprecipitation assays were performed using either KRAS wild-type or mutant G12V expressing RASless MEFs (see elsewhere) or human NCI-H441 lung adenocarcinoma tumor cells and N-terminally biotinylated pept-ins. Cells were seeded at a density of 300,000 cells in a clear 6-well plate (Cellstar, Greiner). One day after seeding, cells were treated with indicated pept-ins at a final concentration of 25 μM and incubated for […]. Next, cells were lysed with NP-40 lysis buffer (150 mM NaCl, 50 mM Tris HC1 pH8, 1% IGEPAL(NP40), 1xHalt phosphatase/protease inhibitors (Thermo), 1U/μl Universal Nuclease (Pierce)) and biotinylated pept-ins were captured with streptavidin-coated magnetic beads (Pierce) during 1 hours at room temperature. Beads were washed with NP40 lysis buffer at least 3 times, after which bound proteins were boiled off in 1× SDS loading dye (Bio-Rad) in NP40 lysis buffer. Proteins were resolved using Any kD 15-well Mini-PROTEAN gels (Bio-Rad) during SDS-PAGE and probed for KRAS after Western blotting using a rabbit polyclonal KRAS-specific antibody (12063-1-AP, Proteintech).
(§4) To this end, relevant MEF cells were treated with 25 μM biotinylated pept-ins overnight (16 hours). Next, cells were lysed, and pept-ins were immunoprecipitated from the lysates using streptavidin-coated beads. […]

[2] = biological target: T7, wild-type KRAS in RASless MEFs (Homo sapiens, UniProt P01116); assay: as above; type: cell-based, mouse; details: 25 μM biotinylated pept-in, 16 hours
T7 construct: host or cells: RASless mouse embryonic fibroblasts (HRAS/NRAS-null, endogenous KRAS removed)
Description: as §3, §4

[3] = tested on: HeLa cell line overexpressing mCherry-tagged KRAS G12V; assay: Cellular fluorescent imaging of FITC-labelled pept-ins; type: cell-based, human; details: 75 min after treatment
Description: Fluorescent cellular imaging was performed using HeLa cells that were transduced with lentiviral particles carrying a construct expressing KRAS G12V labeled N-terminally with mCherry. Cells were seeded in a black μclear® Cellstar® F-bottom 96-well plates (Greiner) in 100 μL full growth medium. […] Next, cells were fixed, washed and counterstained with the nuclear dye NucBlue™ (containing Hoechst 33342). Images were captured on a Leica confocal microscope.
To complement the co-immunoprecipitation approach, we also used a cellular imaging approach to show target engagement. To this end, we generated a HeLa cell line overexpressing mCherry-tagged KRAS G12V and FITC-labelled versions of the RAS-targeting pept-ins.

In the case of “04-004-N011: biotinylated version of pept-in 04-004-N001 (KLSVFAIKGSKLSVFAIK; also: biotinylated, site not given here)”, the “pull-down of G12C mutant KRAS” value (G12C mutant KRAS) is reported as “efficient pull-down”, the “pull-down of G12V mutant KRAS” value (G12V mutant KRAS) is reported as “efficient pull-down” and the “pull-down of G12D mutant KRAS” value (G12D mutant KRAS) is reported as “less efficient”. For the same substance, the “pull-down of G13D mutant KRAS” value (G13D mutant KRAS) was “less efficient”, the “pull-down of KRAS wild-type” value (KRAS wild-type) was “efficient pull-down” and the “co-precipitation of mutant G12V KRAS” value [1] was “appeared to precipitate both wild-type and mutant G12V KRAS well”. For the same substance, the “co-precipitation of wild-type KRAS” value [2] was “appeared to precipitate both wild-type and mutant G12V KRAS well”.
With “04-015-N032: FITC-labelled version of pept-in 04-015-N001 (KVVVGAVGKGSKVVVGAVGK; also: FITC-labelled, site not given here)” the “association with mCherry-labelled KRAS (inclusion-like perinuclear structures)” value [3] was “associates with mCherry-labelled KRAS”.
